Laboratory results as given in the RNAGym collection of RNA variant scans (doi:10.7554/elife.90254).

B1: LINE1-mini (parent)
chain: GGCAGAGCUCAACACAGCGUGGCAAAGUGGCUGUGGCUAGACUGCC

Variants of: B1
Experiment: self-cleavage, relative activity (ratio to wild type); higher = more cleavage; in vitro, sequencing; the parent is a self-cleaving ribozyme

**Q.** Which self-cleavage does the source give for GGAAGAGCUCAACACAGCGUGGCAAAGUUGCUGUGGCUAGACUGCC [C3A G29U] here?
**A.** Its self-cleavage is 0.71.

**Q.** With GGAAGAGCUCAACACAGCGUGGCAAAGUGGCUGUGGCUAGACUCCC [C3A G44C] as the variant, how does the self-cleavage read?
**A.** The self-cleavage was 0.86.

**Q.** For GGAAGAGCUCAACACAGCGUGGCAAAGUGGCUGUGGCUAGACUACC [C3A G44A], which self-cleavage is on record?
**A.** The self-cleavage was 0.91.

**Q.** With GGAAGAGCUCAACACAGCGUGGCAAAGUGGCUGUGGCUAGACUUCC [C3A G44U] as the variant, how does the self-cleavage read?
**A.** Its self-cleavage is 2.11.

**Q.** With GGAAGAGCUCAACACAGCGAGGCAAAGUGGCUGUGGCUAGACUGCC [C3A U20A] as the variant, how does the self-cleavage read?
**A.** Its self-cleavage is 0.38.

**Q.** For GGAAGAGCUCAACACAGCGCGGCAAAGUGGCUGUGGCUAGACUGCC [C3A U20C], which self-cleavage is on record?
**A.** The self-cleavage was 0.19.

**Q.** With GGAAGAGCUCAACACAGCGGGGCAAAGUGGCUGUGGCUAGACUGCC [C3A U20G] as the variant, how does the self-cleavage read?
**A.** The self-cleavage was 0.31.

**Q.** For GGAAGAGCUCAACACAGCGUGGCAAAGGGGCUGUGGCUAGACUGCC [C3A U28G], which self-cleavage is on record?
**A.** Its self-cleavage is 0.42.

**Q.** Which self-cleavage does the source give for GGAAGAGCUCAACACAGCGUGGCAAAGAGGCUGUGGCUAGACUGCC [C3A U28A] here?
**A.** The self-cleavage was 0.32.

**Q.** Which self-cleavage does the source give for GGAAGAGCUCAACACAGCGUGGCAAAGCGGCUGUGGCUAGACUGCC [C3A U28C] here?
**A.** The self-cleavage was 0.32.

**Q.** For GGGAGAGCUCAACACAGCGUGGCAAAGUGGCUGUGGCUAGACUGCC [C3G], which self-cleavage is on record?
**A.** Its self-cleavage is 0.48.

**Q.** For GGGAGAGCUCAACUCAGCGUGGCAAAGUGGCUGUGGCUAGACUGCC [C3G A14U], which self-cleavage is on record?
**A.** Its self-cleavage is 0.32.

**Q.** With GGGAGAGCUCAACGCAGCGUGGCAAAGUGGCUGUGGCUAGACUGCC [C3G A14G] as the variant, how does the self-cleavage read?
**A.** Its self-cleavage is 1.31.

**Q.** Which self-cleavage does the source give for GGGAGAGCUCAACCCAGCGUGGCAAAGUGGCUGUGGCUAGACUGCC [C3G A14C] here?
**A.** The self-cleavage was 0.06.

**Q.** Which self-cleavage does the source give for GGGUGAGCUCAACACAGCGUGGCAAAGUGGCUGUGGCUAGACUGCC [C3G A4U] here?
**A.** The self-cleavage was 0.36.

**Q.** For GGGCGAGCUCAACACAGCGUGGCAAAGUGGCUGUGGCUAGACUGCC [C3G A4C], which self-cleavage is on record?
**A.** Its self-cleavage is 0.11.

**Q.** For GGGGGAGCUCAACACAGCGUGGCAAAGUGGCUGUGGCUAGACUGCC [C3G A4G], which self-cleavage is on record?
**A.** The self-cleavage was 0.2.

**Q.** With GGGAGAGCUCAGCACAGCGUGGCAAAGUGGCUGUGGCUAGACUGCC [C3G A12G] as the variant, how does the self-cleavage read?
**A.** The self-cleavage was 0.09.

**Q.** Which self-cleavage does the source give for GGGAGAGCUCACCACAGCGUGGCAAAGUGGCUGUGGCUAGACUGCC [C3G A12C] here?
**A.** Its self-cleavage is 0.19.

**Q.** For GGGAGAGCUCAUCACAGCGUGGCAAAGUGGCUGUGGCUAGACUGCC [C3G A12U], which self-cleavage is on record?
**A.** Its self-cleavage is 0.43.

**Q.** Which self-cleavage does the source give for GGAAGAGCUCAACACAGCGUGGCAAAGUGGCUGUGGCUAGACCGCC [C3A U43C] here?
**A.** The self-cleavage was 0.28.

**Q.** For GGAAGAGCUCAACACAGCGUGGCAAAGUGGCUGUGGCUAGACGGCC [C3A U43G], which self-cleavage is on record?
**A.** The self-cleavage was 0.04.

**Q.** Which self-cleavage does the source give for GGAAGAGCUCAACACAGCGUGGCAAAGUGGCUGUGGCUAGACAGCC [C3A U43A] here?
**A.** The self-cleavage was 0.39.

**Q.** For GGAAGAGCUCAACACAGCGUGGCAAAGUGGCUGUAGCUAGACUGCC [C3A G35A], which self-cleavage is on record?
**A.** Its self-cleavage is 0.35.

**Q.** With GGAAGAGCUCAACACAGCGUGGCAAAGUGGCUGUUGCUAGACUGCC [C3A G35U] as the variant, how does the self-cleavage read?
**A.** The self-cleavage was 0.59.

**Q.** With GGAAGAGCUCAACACAGCGUGGCAAAGUGGCUGUCGCUAGACUGCC [C3A G35C] as the variant, how does the self-cleavage read?
**A.** Its self-cleavage is 0.18.

**Q.** Which self-cleavage does the source give for GGAAGAGCUCAACACAGCGUGGCAAAGUGGCAGUGGCUAGACUGCC [C3A U32A] here?
**A.** The self-cleavage was 0.12.

**Q.** For GGAAGAGCUCAACACAGCGUGGCAAAGUGGCCGUGGCUAGACUGCC [C3A U32C], which self-cleavage is on record?
**A.** Its self-cleavage is 0.31.

**Q.** With GGAAGAGCUCAACACAGCGUGGCAAAGUGGCGGUGGCUAGACUGCC [C3A U32G] as the variant, how does the self-cleavage read?
**A.** Its self-cleavage is 0.15.

**Q.** For GGGAGAGCUCCACACAGCGUGGCAAAGUGGCUGUGGCUAGACUGCC [C3G A11C], which self-cleavage is on record?
**A.** Its self-cleavage is 0.04.

**Q.** For GGGAGAGCUCUACACAGCGUGGCAAAGUGGCUGUGGCUAGACUGCC [C3G A11U], which self-cleavage is on record?
**A.** The self-cleavage was 0.03.

**Q.** Which self-cleavage does the source give for GGGAGAGCUCGACACAGCGUGGCAAAGUGGCUGUGGCUAGACUGCC [C3G A11G] here?
**A.** Its self-cleavage is 0.09.

**Q.** For GGGAGGGCUCAACACAGCGUGGCAAAGUGGCUGUGGCUAGACUGCC [C3G A6G], which self-cleavage is on record?
**A.** The self-cleavage was 0.08.

**Q.** For GGGAGCGCUCAACACAGCGUGGCAAAGUGGCUGUGGCUAGACUGCC [C3G A6C], which self-cleavage is on record?
**A.** The self-cleavage was 0.27.

**Q.** For GGGAGUGCUCAACACAGCGUGGCAAAGUGGCUGUGGCUAGACUGCC [C3G A6U], which self-cleavage is on record?
**A.** Its self-cleavage is 0.79.

**Q.** For GGAAGAGCUCAACACAGCGUGGCAAAGUGGCUGUGGCUAAACUGCC [C3A G40A], which self-cleavage is on record?
**A.** The self-cleavage was 0.16.

**Q.** With GGAAGAGCUCAACACAGCGUGGCAAAGUGGCUGUGGCUACACUGCC [C3A G40C] as the variant, how does the self-cleavage read?
**A.** The self-cleavage was 0.19.

**Q.** With GGAAGAGCUCAACACAGCGUGGCAAAGUGGCUGUGGCUAUACUGCC [C3A G40U] as the variant, how does the self-cleavage read?
**A.** The self-cleavage was 0.21.

**Q.** With GGAAGAGCACAACACAGCGUGGCAAAGUGGCUGUGGCUAGACUGCC [C3A U9A] as the variant, how does the self-cleavage read?
**A.** Its self-cleavage is 0.59.

**Q.** For GGAAGAGCGCAACACAGCGUGGCAAAGUGGCUGUGGCUAGACUGCC [C3A U9G], which self-cleavage is on record?
**A.** Its self-cleavage is 0.57.

**Q.** For GGAAGAGCCCAACACAGCGUGGCAAAGUGGCUGUGGCUAGACUGCC [C3A U9C], which self-cleavage is on record?
**A.** The self-cleavage was 0.05.

**Q.** Which self-cleavage does the source give for GGAAGAGCUCAACACAGCGUGGCAAAGUGGCUGUGGCCAGACUGCC [C3A U38C] here?
**A.** The self-cleavage was 0.26.

**Q.** Which self-cleavage does the source give for GGAAGAGCUCAACACAGCGUGGCAAAGUGGCUGUGGCGAGACUGCC [C3A U38G] here?
**A.** The self-cleavage was 0.51.

**Q.** For GGAAGAGCUCAACACAGCGUGGCAAAGUGGCUGUGGCAAGACUGCC [C3A U38A], which self-cleavage is on record?
**A.** The self-cleavage was 0.34.

**Q.** With GGAAGAGCUCAACACAGCGUGGCAAAGUGUCUGUGGCUAGACUGCC [C3A G30U] as the variant, how does the self-cleavage read?
**A.** The self-cleavage was 0.61.

**Q.** Which self-cleavage does the source give for GGAAGAGCUCAACACAGCGUGGCAAAGUGACUGUGGCUAGACUGCC [C3A G30A] here?
**A.** The self-cleavage was 1.1.

**Q.** Which self-cleavage does the source give for GGAAGAGCUCAACACAGCGUGGCAAAGUGCCUGUGGCUAGACUGCC [C3A G30C] here?
**A.** Its self-cleavage is 0.58.

**Q.** Which self-cleavage does the source give for GGAAGAGCUCAACACAGCGUGGCAAAGUGGCUAUGGCUAGACUGCC [C3A G33A] here?
**A.** Its self-cleavage is 0.37.

**Q.** Which self-cleavage does the source give for GGAAGAGCUCAACACAGCGUGGCAAAGUGGCUCUGGCUAGACUGCC [C3A G33C] here?
**A.** The self-cleavage was 0.1.

**Q.** For GGAAGAGCUCAACACAGCGUGGCAAAGUGGCUUUGGCUAGACUGCC [C3A G33U], which self-cleavage is on record?
**A.** The self-cleavage was 0.15.

**Q.** Which self-cleavage does the source give for GGAAGAGCUCAACACAGCGUGGCAAAGUGGCUGAGGCUAGACUGCC [C3A U34A] here?
**A.** The self-cleavage was 0.11.

**Q.** With GGAAGAGCUCAACACAGCGUGGCAAAGUGGCUGCGGCUAGACUGCC [C3A U34C] as the variant, how does the self-cleavage read?
**A.** Its self-cleavage is 0.14.

**Q.** For GGAAGAGCUCAACACAGCGUGGCAAAGUGGCUGGGGCUAGACUGCC [C3A U34G], which self-cleavage is on record?
**A.** Its self-cleavage is 0.12.

**Q.** For GGAAGAGCUCAACACAGCGUGGCAAAGUGGCUGUGCCUAGACUGCC [C3A G36C], which self-cleavage is on record?
**A.** The self-cleavage was 1.01.

**Q.** Which self-cleavage does the source give for GGAAGAGCUCAACACAGCGUGGCAAAGUGGCUGUGUCUAGACUGCC [C3A G36U] here?
**A.** Its self-cleavage is 0.38.

**Q.** With GGAAGAGCUCAACACAGCGUGGCAAAGUGGCUGUGACUAGACUGCC [C3A G36A] as the variant, how does the self-cleavage read?
**A.** Its self-cleavage is 1.1.
